The results in this text go back to article PMC10570038.

Several values for one entry are separate records, joined by “and”; a condition that tells them apart may be missing. Equal entries are not always repeated. Where only a bound is given, the exact number is not on record here.

Series [1] has as its target RBPMS-A FL (rat) (UniProt A0A8I6G705). Put plainly: EMSA. As to conditions: no binding in 0-6 uM; EMSA: 10 nM RNA, 25 mM HEPES pH 7.9, 100 mM KCl, 2 mM MgCl2, 0.625 mM DTT, 0.1 mg/ml BSA, 5% glycerol, 30 C 1 h, then 5 mg/ml heparin 10 min; 5% native PAGE in ….
The target in series [2] is recombinant untagged rat RBPMS-A ΔC20 (rat). The experiment in a line: AUC; sedimentation velocity, 40 000 rpm, 20°C, 20 mM HEPES, 1 mM TCEP, pH 7.9, 60 mM KCl; FL 0.7, 0.48, 0.24, 0.11 mg/ml; ΔC20 0.5 or 0.1 mg/ml; continuous c(s) model.
For series [3] the target is unchanged. Put plainly: cross-linking; glycerol gradients supplemented with a glutaraldehyde cross-linker (GraFix).
The target is the same in series [4]. The experiment in a line: SEC; size exclusion chromatography of purified untagged recombinant protein; compared with size markers (443 kDa marker, void volume). For orientation: Size exclusion chromatography separates by hydrodynamic size, large species first.
Series [5] shares this target. Put plainly: AUC; sedimentation velocity, 40 000 rpm, 20°C, 20 mM HEPES, 1 mM TCEP, pH 7.9, 500 mM KCl; FL and ΔC20 at equal molar concentration (0.46 and 0.57 mg/ml); continuous c(s) model.

By Kd is commonly meant a measure of binding affinity in units of concentration. In the case of “GUCUACGCACCCUCAACCCGCACCUUGCGGGAUG [(CAC)2]”, the Kd in series [1] was above 6 µM.
Usually stoichiometry N stands for a count of units in the complex or per binding partner. “recombinant untagged rat RBPMS-A ΔC20 (domain or fragment)”: the stoichiometry N in series [2] was 2 and 3; in series [3] it was 3 and 4; in series [4], 2; in series [5] it was 2. Besides, the percent eluting as dimer in series [4] was found to be 96%.
